{
  "source": "paper PMC7744274",
  "target": "SARS-CoV-2 S glycoprotein, prefusion S ectodomain (trimeric SARS-CoV-2 spike) (SARS-CoV-2 | bacteriophage T4) (UniProt P0DTC2)",
  "experiment": "SPR; Biacore T200; SARS-CoV-2 S (50 ug/ml) captured on Ni2+-loaded NTA chip; ACE2 (His-Tag removed) as analyte, 200 nM to 3.125 nM in triplicate, 50 uL/min, HBS P+ buffer; association 300 s, dissociation 600 s; 1:1 binding model",
  "note": "Several values for one entry are separate records, joined by “and”; a condition that tells them apart may be missing. Equal values may be shown once.",
  "data": [
    {"substance": "soluble recombinant ACE2 ectodomain, un-engineered (wild-type form, WT) (from UniProt Q9BYF1 18-626) (domain or fragment)", "values": [
      {"measurement": "Kd", "value": "50 to 100 nM and 76 nM"}
    ]},
    {"substance": "soluble ACE2 expressed in the presence of 20 uM kifunensine (Kif ACE2) (from UniProt Q9BYF1 18-626) (domain or fragment)", "values": [
      {"measurement": "increase of KD against WT ACE2", "value": 50, "unit": "%"}
    ]},
    {"substance": "WT soluble ACE2 treated with alpha2-3,6,8 sialidase (from UniProt Q9BYF1 18-626) (domain or fragment)", "values": [
      {"measurement": "decrease of KD against WT ACE2", "value": 30, "unit": "% lower"}
    ]}
  ]
}
